One assay has as its target T1, 4H626-bA.
T1 chain: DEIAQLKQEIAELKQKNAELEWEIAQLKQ
Put plainly: two-hybrid library CCNG1.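 Further: natural log of median RNA to DNA barcode read ratio; higher means stronger binding.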

Another assay deals with T2, 4H906-bA.
T2 chain: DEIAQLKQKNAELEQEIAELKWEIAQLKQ
Description: two-hybrid library CCNG1.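 Further: natural log of median RNA to DNA barcode read ratio; higher means stronger binding.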

For a further assay, the target named is T3, 4H3462-bA.
T3 chain: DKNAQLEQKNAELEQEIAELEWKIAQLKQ
Description: two-hybrid library CCNG1.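 Further: natural log of median RNA to DNA barcode read ratio; higher means stronger binding.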

Another assay concerns the target T4, 4H591-bA.
T4 chain: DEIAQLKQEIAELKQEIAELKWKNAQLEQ
Description: two-hybrid library CCNG1.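 Further: natural log of median RNA to DNA barcode read ratio; higher means stronger binding.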

For the next assay, the target named is T5, 4H3298-bA.
T5 chain: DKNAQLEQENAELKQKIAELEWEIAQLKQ
Put plainly: two-hybrid library CCNG1.

The target in another assay is T6, 4H3926-bA.
T6 chain: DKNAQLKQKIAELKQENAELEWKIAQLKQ
Description: two-hybrid library CCNG1.

For a further assay, the target named is T7, 4H3497-bA.
T7 chain: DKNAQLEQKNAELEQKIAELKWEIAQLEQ
Description: two-hybrid library CCNG1.

A further assay deals with T8, 4H3613-bA.
T8 chain: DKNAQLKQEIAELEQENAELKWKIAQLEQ
Description: two-hybrid library CCNG1.

A further assay deals with T9, 4H3628-bA.
T9 chain: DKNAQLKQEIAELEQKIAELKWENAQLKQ
Description: two-hybrid library CCNG1.

Another assay concerns the target T10, O9.
T10 chain: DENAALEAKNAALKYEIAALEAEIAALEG
Description: two-hybrid library CCNG1.

The next assay has as its target T11, O8.
T11 chain: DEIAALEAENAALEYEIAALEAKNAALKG
Put plainly: two-hybrid library CCNG1.

The target of the next assay is T12, O6.
T12 chain: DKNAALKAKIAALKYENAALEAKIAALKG
Put plainly: two-hybrid library CCNG1.

The next assay addresses T13, O7.
T13 chain: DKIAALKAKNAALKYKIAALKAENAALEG
Put plainly: two-hybrid library CCNG1.

For the next assay, the target named is T14, O5.
T14 chain: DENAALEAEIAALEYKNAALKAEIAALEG
Description: two-hybrid library CCNG1.

The target of another assay is T15, O4.
T15 chain: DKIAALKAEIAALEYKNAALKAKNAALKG
Put plainly: two-hybrid library CCNG1.

The next assay addresses T16, 4H3057-bN.
T16 chain: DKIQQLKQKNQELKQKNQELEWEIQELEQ
Put plainly: two-hybrid library CCNG1.

For a further assay, the target named is T17, 4H2915-bN.
T17 chain: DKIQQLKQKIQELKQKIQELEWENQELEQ
Put plainly: two-hybrid library CCNG1.

The next assay has as its target T18, 4H741-bN.
T18 chain: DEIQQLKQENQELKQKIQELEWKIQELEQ
Description: two-hybrid library CCNG1.

For the next assay, the target named is T19, 4H477-bN.
T19 chain: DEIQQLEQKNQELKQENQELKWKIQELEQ
Description: two-hybrid library CCNG1.

Another assay addresses T20, 4H40-bN.
T20 chain: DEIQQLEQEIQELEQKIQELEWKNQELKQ
Description: two-hybrid library CCNG1.

Another assay concerns the target T21, 4H492-bN.
T21 chain: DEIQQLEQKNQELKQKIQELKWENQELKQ
Put plainly: two-hybrid library CCNG1.

The target in the next assay is T22, 4H2839-bN.
T22 chain: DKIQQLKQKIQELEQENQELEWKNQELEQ
Description: two-hybrid library CCNG1.

A further assay has as its target T23, 4H2717-bN.
T23 chain: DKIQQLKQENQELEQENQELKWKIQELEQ
Put plainly: two-hybrid library CCNG1.

In a further assay the target is T24, 4H319-bN.
T24 chain: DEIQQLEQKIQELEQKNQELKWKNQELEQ
Description: two-hybrid library CCNG1.

The target of the next assay is T25, 4H3277-bN.
T25 chain: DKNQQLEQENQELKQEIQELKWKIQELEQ
Put plainly: two-hybrid library CCNG1.

In the next assay the target is T26, 4H348-bN.
T26 chain: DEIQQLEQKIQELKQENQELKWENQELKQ
Put plainly: two-hybrid library CCNG1.

In a further assay the target is T27, 4H3638-bA.
T27 chain: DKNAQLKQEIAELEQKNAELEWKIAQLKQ
Description: two-hybrid library CCNG1.

The next assay deals with T28, 4H477-bA.
T28 chain: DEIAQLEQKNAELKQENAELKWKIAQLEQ
Put plainly: two-hybrid library CCNG1.

The next assay addresses T29, 4H348-bA.
T29 chain: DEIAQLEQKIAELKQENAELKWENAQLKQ
Description: two-hybrid library CCNG1.

In the next assay the target is T30, 4H492-bA.
T30 chain: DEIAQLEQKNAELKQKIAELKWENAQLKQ
Put plainly: two-hybrid library CCNG1.

For a further assay, the target named is T31, 4H40-bA.
T31 chain: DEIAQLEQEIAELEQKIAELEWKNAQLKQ
Put plainly: two-hybrid library CCNG1.

The target in the next assay is T32, 4H741-bA.
T32 chain: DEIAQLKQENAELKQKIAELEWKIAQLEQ
Put plainly: two-hybrid library CCNG1.

The next assay concerns the target T33, 4H3277-bA.
T33 chain: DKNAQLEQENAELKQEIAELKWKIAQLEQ
Description: two-hybrid library CCNG1.

Another assay addresses T34, 4H3628-AA.
T34 chain: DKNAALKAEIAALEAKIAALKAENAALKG
Description: two-hybrid library CCmax. As to conditions: mean of both orientations.

The next assay concerns the target T35, 4H391-AA.
T35 chain: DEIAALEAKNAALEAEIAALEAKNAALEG
Put plainly: two-hybrid library CCmax. The conditions noted are these: mean of both orientations.

The target of a further assay is T36, 4H971-AA.
T36 chain: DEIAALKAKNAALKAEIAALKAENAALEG
Put plainly: two-hybrid library CCmax. The conditions noted are these: mean of both orientations.

In another assay the target is T37, 4H3417-AA.
T37 chain: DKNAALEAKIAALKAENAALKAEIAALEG
Put plainly: two-hybrid library CCmax. As to conditions: mean of both orientations.

Another assay has as its target T38, 4H3666-AA.
T38 chain: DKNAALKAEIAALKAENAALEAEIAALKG
Put plainly: two-hybrid library CCmax. As to conditions: mean of both orientations.

Another assay concerns the target T39, 4H3102-AA.
T39 chain: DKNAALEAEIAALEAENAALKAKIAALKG
Description: two-hybrid library CCmax. The conditions noted are these: mean of both orientations.

In another assay the target is T40, 4H3446-AA.
T40 chain: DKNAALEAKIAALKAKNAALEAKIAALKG
Put plainly: two-hybrid library CCmax. As to conditions: mean of both orientations.

Another assay addresses T41, 4H2948-AA.
T41 chain: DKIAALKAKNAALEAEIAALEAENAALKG
Description: two-hybrid library CCmax. The conditions noted are these: mean of both orientations.

A further assay addresses T42, 4H2713-AA.
T42 chain: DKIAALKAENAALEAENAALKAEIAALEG
Description: two-hybrid library CCmax. As to conditions: mean of both orientations.

In the next assay the target is T43, 4H2283-AA.
T43 chain: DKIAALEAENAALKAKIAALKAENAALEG
Put plainly: two-hybrid library CCmax. As to conditions: mean of both orientations.

The next assay concerns the target T44, 4H478-AA.
T44 chain: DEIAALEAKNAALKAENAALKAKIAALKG
Put plainly: two-hybrid library CCmax. As to conditions: mean of both orientations.

For the next assay, the target named is T45, 4H3709-AA.
T45 chain: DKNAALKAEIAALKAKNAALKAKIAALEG
Put plainly: two-hybrid library CCmax. As to conditions: mean of both orientations.

The next assay deals with T46, 4H2248-AA.
T46 chain: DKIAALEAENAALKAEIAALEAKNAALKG
Put plainly: two-hybrid library CCmax.

The next assay deals with T47, 4H497-AA.
T47 chain: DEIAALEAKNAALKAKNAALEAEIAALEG
Description: two-hybrid library CCmax. As to conditions: mean of both orientations.

A further assay concerns the target T48, 4H428-AA.
T48 chain: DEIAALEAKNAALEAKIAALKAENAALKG
Put plainly: two-hybrid library CCmax. As to conditions: mean of both orientations.

The next assay has as its target T49, 4H3591-AA.
T49 chain: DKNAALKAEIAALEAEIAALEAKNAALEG
Put plainly: two-hybrid library CCmax. The conditions noted are these: mean of both orientations.

For another assay, the target named is T50, 4H675-AA.
T50 chain: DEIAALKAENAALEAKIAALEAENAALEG
Put plainly: two-hybrid library CCmax. As to conditions: mean of both orientations.

The target of a further assay is T51, 4H2742-AA.
T51 chain: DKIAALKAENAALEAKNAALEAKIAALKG
Description: two-hybrid library CCmax. As to conditions: mean of both orientations.

The target of the next assay is T52, 4H2991-AA.
T52 chain: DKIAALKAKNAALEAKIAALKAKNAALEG
Description: two-hybrid library CCmax. As to conditions: mean of both orientations.

In the next assay the target is T53, 4H3121-AA.
T53 chain: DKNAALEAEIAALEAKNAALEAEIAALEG
Put plainly: two-hybrid library CCmax. The conditions noted are these: mean of both orientations.

The next assay addresses T54, 4H656-AA.
T54 chain: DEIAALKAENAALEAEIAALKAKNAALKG
Put plainly: two-hybrid library CCmax. As to conditions: mean of both orientations.

In another assay the target is T55, 4H3939-AA.
T55 chain: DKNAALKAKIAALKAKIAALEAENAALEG
Put plainly: two-hybrid library CCmax. As to conditions: mean of both orientations.

The next assay has as its target T56, 4H3029-AA.
T56 chain: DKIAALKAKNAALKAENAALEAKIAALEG
Put plainly: two-hybrid library CCmax. The conditions noted are these: mean of both orientations.

Another assay deals with T57, 4H3920-AA.
T57 chain: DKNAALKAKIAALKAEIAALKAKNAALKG
Description: two-hybrid library CCmax. As to conditions: mean of both orientations.

In another assay the target is T58, 4H3066-AA.
T58 chain: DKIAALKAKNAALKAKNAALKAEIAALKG
Put plainly: two-hybrid library CCmax. As to conditions: mean of both orientations.

In the case of DKNAQLEQENAELKQKIAELEWEIAQLKQ [4H3298-bA], the interaction score in the assay with 4H626-bA was -1.12; with 4H906-bA it was -0.638; with 4H3462-bA it was 0.667; with 4H591-bA, -0.699; in the assay with 4H3298-bA, 1.02; with 4H3926-bA, -0.651. In addition, the results for the interaction score in the assay with 4H3497-bA, in the assay with 4H3613-bA and with 4H3628-bA were -0.263, 0.681 and -0.0439, respectively.
Take DKIAALKAEIAALEYKNAALKAKNAALKG [O4]: the interaction score with O9 was -1.88; with O8, -2.07; in the assay with O6 it was -2.27; in the assay with O7 it was -2.43; with O5 it was -2.52; in the assay with O4, -2.15.
As for DKIQQLKQENQELEQENQELKWKIQELEQ [4H2717-bN], the interaction score with 4H3057-bN was -1.99; with 4H2915-bN, -0.6; in the assay with 4H741-bN, -2.58; with 4H477-bN, 1.4; with 4H40-bN, -1.61; with 4H492-bN, -0.854. Moreover, the interaction score in the assay with 4H2839-bN is -0.648; with 4H2717-bN it was 0.00236; in the assay with 4H319-bN it was -0.684; with 4H3277-bN it was -1.11; in the assay with 4H348-bN it was -0.289.
Regarding DKNAQLEQKNAELEQEIAELEWKIAQLKQ [4H3462-bA], the interaction score is -1.05 with 4H3638-bA; -0.693 in the assay with 4H626-bA; -1.46 with 4H906-bA; 0.257 with 4H3462-bA; 0.153 with 4H591-bA; 0.717 with 4H3926-bA. The interaction score with 4H3497-bA is 0.917; with 4H3613-bA, -0.827; with 4H3628-bA, -1.42.
On to DKNAQLEQENAELKQEIAELKWKIAQLEQ [4H3277-bA], for which the interaction score with 4H626-bA is -0.429; in the assay with 4H906-bA, -0.838; in the assay with 4H3462-bA it was -0.372; with 4H591-bA it was -1.19; with 4H3298-bA, -0.215; with 4H477-bA it was -0.644. Moreover, the interaction score with 4H3926-bA was -0.539; with 4H3497-bA, -0.961; in the assay with 4H348-bA, -0.856; with 4H3613-bA it was -0.514; with 4H492-bA, -0.379; with 4H3628-bA it was -0.955. Moreover, the interaction score is -1.08 with 4H40-bA, -1.81 in the assay with 4H741-bA and 1.38 with 4H3277-bA.
On to DKIAALEAENAALKAEIAALEAKNAALKG [4H2248-AA], for which the interaction score was -1.59 with 4H3628-AA; -1.16 with 4H391-AA; 1.05 with 4H971-AA; 0.548 with 4H3417-AA; -0.505 in the assay with 4H3666-AA; 2.22 with 4H3102-AA. Further, the interaction score in the assay with 4H3446-AA is 0.189; with 4H2948-AA, -0.353; with 4H2713-AA, -1.2; with 4H2283-AA, 2.34; with 4H478-AA it was 0.536; with 4H3709-AA, -1.23. The interaction score was 2.16 with 4H2248-AA; -2.18 with 4H497-AA; -0.478 with 4H428-AA; -1.39 with 4H3591-AA; 0.827 with 4H675-AA; -1.88 with 4H2742-AA. In addition, the interaction score with 4H2991-AA is -0.183; with 4H3121-AA it was -1.69; with 4H656-AA it was -0.26; with 4H3939-AA, -1.4; with 4H3029-AA, -1.79; with 4H3920-AA, -1.51. In the assay with 4H3066-AA, this molecule had an interaction score of -1.25.

Source of the values: publication PMC10397247.
